Test results reported in patent US20150337046A1 (published 2015).

Biological target: T1, human LIGHT (hLIGHT), cell surface-expressed, full length (UniProt O43557 1-240)
T1 chain: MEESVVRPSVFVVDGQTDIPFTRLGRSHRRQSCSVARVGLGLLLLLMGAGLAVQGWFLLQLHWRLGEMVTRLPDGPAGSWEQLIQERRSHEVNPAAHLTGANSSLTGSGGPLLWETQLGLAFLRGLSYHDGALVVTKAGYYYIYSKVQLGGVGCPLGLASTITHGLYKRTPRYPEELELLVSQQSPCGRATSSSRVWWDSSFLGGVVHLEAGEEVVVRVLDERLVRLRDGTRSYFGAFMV
Experiment: FACS binding; 293-hLIGHT cells

B1: recombinant single kappa chain antibody of E1 heavy chain paired with Elkappa(B) (antibody, V domains shown)
VH: EVQLVESGGGLVQPGGSLRLSCAASGFTFSRFNMNWVRQAPGKGLEWVSYISSSSYTIYYADSVKGRFTISRDNAKNSLDLQMNSLRDEDTAVYYCARSIAAAFDYWGQGALVTVSS
VL: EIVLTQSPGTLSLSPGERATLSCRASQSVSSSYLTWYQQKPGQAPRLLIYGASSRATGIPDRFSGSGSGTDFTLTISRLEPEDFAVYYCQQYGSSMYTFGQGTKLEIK
EC50: 0.547 µg/mL

B2: E1 antibody (produced by hybridoma 124 E1, ATCC Accession No. PTA-7729) (antibody, V domains shown)
VH: EVQLVESGGGLVQPGGSLRLSCAASGFTFSRFNMNWVRQAPGKGLEWVSYISSSSYTIYYADSVKGRFTISRDNAKNSLDLQMNSLRDEDTAVYYCARSIAAAFDYWGQGALVTVSS
VL: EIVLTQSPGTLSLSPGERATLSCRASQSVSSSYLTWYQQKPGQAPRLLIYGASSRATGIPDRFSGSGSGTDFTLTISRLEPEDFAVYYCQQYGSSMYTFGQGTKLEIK
EC50: 0.463 µg/mL
